Source: the RNAGym collection of RNA variant scans (doi:10.1093/molbev/msab373)

B1: Azoarcus group I ribozyme (parent)
chain: GUGCCUUGCGCCGGGAAACCACGCAAGGGAUGGUGUCAAAUUCGGCGAAACCUAAGCGCCCGCCCGGGCGUAUGGCAACGCCGAGCCAAGCUUCGGCGCCUGCGCCGAUGAAGGUGUAGAGACUAGACGGCACCCACCUAAGGCAAACGCUAUGGUGAAGGCAUAGUCCAGGGAGUGGCGAAAGUCACACAAACCGG

Variants of: B1
Assay: reverse-splicing fitness (ratio to wild type); higher = more active; in vitro selection; Mg2+ level not given
Procedure, shortened: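 An in vitro group I ribozyme library with randomized positions was T7-transcribed and gel-purified. In triplicate, 10 pmol RNA in EPPS pH 7.5 was reacted with 50 pmoles of a 30-nt RNA substrate for 1 h at 37 °C across several added MgCl2 levels (1–48 mM), then stopped with EDTA. Products were reverse transcribed from a substrate-complementary primer, PCR-amplified and sequenced (HiSeq 4000). Fitness is a variant's read proportion after selection over that before, normalised to wild type.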

With A111U A120C A145U C150U C169A U176G as the variant, how does the reverse-splicing fitness read?
Its reverse-splicing fitness is 0.0056.

For A111U A120C A145U C150U C169A U176C, which reverse-splicing fitness is on record?
The reverse-splicing fitness was 0.00725.

Which reverse-splicing fitness does the source give for A111U A120C A145U C150U C169A U176A here?
Its reverse-splicing fitness is 0.0134.

For A111U A120C A145U C169G U176C, which reverse-splicing fitness is on record?
Its reverse-splicing fitness is 0.00915.

Which reverse-splicing fitness does the source give for A111U A120C A145U C169G U176A here?
The reverse-splicing fitness was 0.00823.

With A111U A120C A145U C169G U176G as the variant, how does the reverse-splicing fitness read?
Its reverse-splicing fitness is 0.00415.

With A111U A120C A145U C150G U176C as the variant, how does the reverse-splicing fitness read?
The reverse-splicing fitness was 0.0375.

Which reverse-splicing fitness does the source give for A111U A120C A145U C150G U176A here?
The reverse-splicing fitness was 0.0175.

With A111U A120C A145U C150G U176G as the variant, how does the reverse-splicing fitness read?
Its reverse-splicing fitness is 0.00473.

For A111U A120C A145G U176C, which reverse-splicing fitness is on record?
Its reverse-splicing fitness is 0.306.

Which reverse-splicing fitness does the source give for A111U A120C A145G U176A here?
Its reverse-splicing fitness is 0.246.

With A111U A120C A145G U176G as the variant, how does the reverse-splicing fitness read?
Its reverse-splicing fitness is 0.0419.

For A111U A120C A145G C150A C169U U176C, which reverse-splicing fitness is on record?
The reverse-splicing fitness was 0.022.

For A111U A120C A145G C150A C169U U176A, which reverse-splicing fitness is on record?
Its reverse-splicing fitness is 0.0208.

For A111U A120C A145G C150A C169U U176G, which reverse-splicing fitness is on record?
The reverse-splicing fitness was 0.00691.

For A111U A120C A145U C150A C169U, which reverse-splicing fitness is on record?
Its reverse-splicing fitness is 0.0213.

With A111U A120C A145U C150A C169A as the variant, how does the reverse-splicing fitness read?
The reverse-splicing fitness was 0.00875.

With A111U A120C A145U C150A C169G as the variant, how does the reverse-splicing fitness read?
The reverse-splicing fitness was 0.00755.

With A111U A120C A145G as the variant, how does the reverse-splicing fitness read?
Its reverse-splicing fitness is 0.569.

With A111U A120C A145U as the variant, how does the reverse-splicing fitness read?
The reverse-splicing fitness was 0.596.

Which reverse-splicing fitness does the source give for A111U A120C A145G C150G C169G U176A here?
Its reverse-splicing fitness is 0.0094.

Which reverse-splicing fitness does the source give for A111U A120C A145G C150G C169G U176C here?
The reverse-splicing fitness was 0.0106.

Which reverse-splicing fitness does the source give for A111U A120C A145G C150G C169G U176G here?
Its reverse-splicing fitness is 0.00555.

Which reverse-splicing fitness does the source give for A111U A120C A145G C150U C169A U176C here?
The reverse-splicing fitness was 0.0138.

For A111U A120C A145G C150U C169A U176G, which reverse-splicing fitness is on record?
The reverse-splicing fitness was 0.00555.

With A111U A120C A145G C150U C169A U176A as the variant, how does the reverse-splicing fitness read?
Its reverse-splicing fitness is 0.0143.

Which reverse-splicing fitness does the source give for A111U A120C A145G C150G C169U U176G here?
The reverse-splicing fitness was 0.00652.

With A111U A120C A145G C150G C169U U176A as the variant, how does the reverse-splicing fitness read?
Its reverse-splicing fitness is 0.0118.

Which reverse-splicing fitness does the source give for A111U A120C A145G C150G C169U U176C here?
The reverse-splicing fitness was 0.0127.

Which reverse-splicing fitness does the source give for A111U A120C A145U U176C here?
Its reverse-splicing fitness is 0.3.

With A111U A120C A145U U176G as the variant, how does the reverse-splicing fitness read?
Its reverse-splicing fitness is 0.0572.

Which reverse-splicing fitness does the source give for A111U A120C A145U U176A here?
Its reverse-splicing fitness is 0.259.

For A111U A120C A145G C150A C169A, which reverse-splicing fitness is on record?
Its reverse-splicing fitness is 0.0121.

With A111U A120C A145G C150A C169U as the variant, how does the reverse-splicing fitness read?
Its reverse-splicing fitness is 0.034.

Which reverse-splicing fitness does the source give for A111U A120C A145G C150A C169G here?
Its reverse-splicing fitness is 0.00836.

For A111U A120C A145G C150A C169G U176C, which reverse-splicing fitness is on record?
The reverse-splicing fitness was 0.0246.

Which reverse-splicing fitness does the source give for A111U A120C A145G C150A C169G U176A here?
The reverse-splicing fitness was 0.0161.

Which reverse-splicing fitness does the source give for A111U A120C A145G C150A C169G U176G here?
The reverse-splicing fitness was 0.00488.

Which reverse-splicing fitness does the source give for A111U A120C A145G C150U C169U U176C here?
The reverse-splicing fitness was 0.0389.

For A111U A120C A145G C150U C169U U176G, which reverse-splicing fitness is on record?
Its reverse-splicing fitness is 0.0053.

For A111U A120C A145G C150U C169U U176A, which reverse-splicing fitness is on record?
The reverse-splicing fitness was 0.0282.

With A111U A120C A145C U176A as the variant, how does the reverse-splicing fitness read?
Its reverse-splicing fitness is 0.232.

For A111U A120C A145C U176C, which reverse-splicing fitness is on record?
The reverse-splicing fitness was 0.243.

Which reverse-splicing fitness does the source give for A111U A120C A145C U176G here?
Its reverse-splicing fitness is 0.0498.

Which reverse-splicing fitness does the source give for A111U A120C A145U C150U C169U U176G here?
Its reverse-splicing fitness is 0.0049.

For A111U A120C A145U C150U C169U U176A, which reverse-splicing fitness is on record?
The reverse-splicing fitness was 0.0306.

Which reverse-splicing fitness does the source give for A111U A120C A145U C150U C169U U176C here?
Its reverse-splicing fitness is 0.0381.

For A111U A120C A145G C169U U176C, which reverse-splicing fitness is on record?
The reverse-splicing fitness was 0.046.

With A111U A120C A145G C169U U176A as the variant, how does the reverse-splicing fitness read?
Its reverse-splicing fitness is 0.0335.

For A111U A120C A145G C169U U176G, which reverse-splicing fitness is on record?
Its reverse-splicing fitness is 0.00517.

For A111U A120C A145U C150A C169G U176C, which reverse-splicing fitness is on record?
Its reverse-splicing fitness is 0.0106.

For A111U A120C A145U C150A C169G U176A, which reverse-splicing fitness is on record?
The reverse-splicing fitness was 0.0112.

Which reverse-splicing fitness does the source give for A111U A120C A145U C150A C169G U176G here?
Its reverse-splicing fitness is 0.00518.

Which reverse-splicing fitness does the source give for A111U A120C A145G C150U C169G U176C here?
Its reverse-splicing fitness is 0.0168.

With A111U A120C A145G C150U C169G U176A as the variant, how does the reverse-splicing fitness read?
The reverse-splicing fitness was 0.0125.

With A111U A120C A145G C150U C169G U176G as the variant, how does the reverse-splicing fitness read?
The reverse-splicing fitness was 0.00528.

Which reverse-splicing fitness does the source give for A111U A120C A145G C150A C169A U176A here?
The reverse-splicing fitness was 0.0184.

For A111U A120C A145G C150A C169A U176G, which reverse-splicing fitness is on record?
Its reverse-splicing fitness is 0.00601.

For A111U A120C A145G C150A C169A U176C, which reverse-splicing fitness is on record?
The reverse-splicing fitness was 0.0204.

For A111U A120C A145U C169U U176C, which reverse-splicing fitness is on record?
Its reverse-splicing fitness is 0.0439.

Which reverse-splicing fitness does the source give for A111U A120C A145U C169U U176G here?
Its reverse-splicing fitness is 0.00586.

For A111U A120C A145U C169U U176A, which reverse-splicing fitness is on record?
The reverse-splicing fitness was 0.0319.

With A111U A120C A145G C150U C169U as the variant, how does the reverse-splicing fitness read?
The reverse-splicing fitness was 0.148.

For A111U A120C A145G C150U C169G, which reverse-splicing fitness is on record?
Its reverse-splicing fitness is 0.00992.

With A111U A120C A145G C150U C169A as the variant, how does the reverse-splicing fitness read?
Its reverse-splicing fitness is 0.0113.

With A111U A120C C150G as the variant, how does the reverse-splicing fitness read?
Its reverse-splicing fitness is 0.0482.

For A111U A120C C150A, which reverse-splicing fitness is on record?
The reverse-splicing fitness was 0.0636.

Which reverse-splicing fitness does the source give for A111U A120C A145G C169A U176C here?
Its reverse-splicing fitness is 0.0215.

For A111U A120C A145G C169A U176G, which reverse-splicing fitness is on record?
Its reverse-splicing fitness is 0.0041.

Which reverse-splicing fitness does the source give for A111U A120C A145G C169A U176A here?
The reverse-splicing fitness was 0.019.

With A111U A120C C150A U176G as the variant, how does the reverse-splicing fitness read?
The reverse-splicing fitness was 0.0118.

For A111U A120C C150A U176A, which reverse-splicing fitness is on record?
Its reverse-splicing fitness is 0.0374.

Which reverse-splicing fitness does the source give for A111U A120C C150A U176C here?
Its reverse-splicing fitness is 0.0574.

Which reverse-splicing fitness does the source give for A111U A120C A145U C150U C169U here?
The reverse-splicing fitness was 0.112.

For A111U A120C A145U C150U C169A, which reverse-splicing fitness is on record?
The reverse-splicing fitness was 0.0105.

Which reverse-splicing fitness does the source give for A111U A120C A145U C150U C169G here?
The reverse-splicing fitness was 0.00826.

With A111U A120C C150A C169G U176G as the variant, how does the reverse-splicing fitness read?
Its reverse-splicing fitness is 0.00525.

For A111U A120C C150A C169G U176A, which reverse-splicing fitness is on record?
The reverse-splicing fitness was 0.0168.

For A111U A120C C150A C169G U176C, which reverse-splicing fitness is on record?
Its reverse-splicing fitness is 0.0197.

For A111U A120C C150G U176C, which reverse-splicing fitness is on record?
The reverse-splicing fitness was 0.0262.

For A111U A120C C150G U176A, which reverse-splicing fitness is on record?
Its reverse-splicing fitness is 0.0104.

Which reverse-splicing fitness does the source give for A111U A120C C150G U176G here?
The reverse-splicing fitness was 0.00366.

For A111U A120C A145U C150U, which reverse-splicing fitness is on record?
The reverse-splicing fitness was 0.401.
